Changes are numbered by the printed parent chain.
How the values were obtained:
[1] = target: T1, human DC-SIGN (full length, expressed on cells) (human, UniProt Q9NNX6 1-404); assay: flow cytometry, IgG titrated on human DC-SIGN K562 cells
T1 construct: Also used for DC-SIGN on human monocyte-derived cells and on cells of human DC-SIGN transgenic mice in the functional rows; also called CD209; human DC-SIGN CHO
T1 sequence: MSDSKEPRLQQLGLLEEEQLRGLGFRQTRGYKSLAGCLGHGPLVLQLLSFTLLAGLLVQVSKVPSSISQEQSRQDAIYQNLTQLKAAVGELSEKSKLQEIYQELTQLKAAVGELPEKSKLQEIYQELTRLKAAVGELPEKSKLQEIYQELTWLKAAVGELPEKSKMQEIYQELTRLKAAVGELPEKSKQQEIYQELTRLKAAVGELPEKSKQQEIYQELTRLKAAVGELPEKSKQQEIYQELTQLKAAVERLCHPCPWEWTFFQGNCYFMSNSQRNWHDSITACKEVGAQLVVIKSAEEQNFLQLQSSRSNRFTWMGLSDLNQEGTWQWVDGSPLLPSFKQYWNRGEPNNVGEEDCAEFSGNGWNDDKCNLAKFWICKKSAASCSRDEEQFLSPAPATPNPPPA

[2] = target: T1, human DC-SIGN (full length, expressed …); assay: flow cytometry, IgG titrated on human DC-SIGN CHO cells
[3] = target: T2, cynomolgus monkey DC-SIGN (full length, expressed on CHO cells) (cynomolgus monkey, UniProt Q95J96 1-403 (rhesus entry)); assay: flow cytometry, IgG titrated on cyno DC-SIGN CHO cells
T2 construct: also called cyno DC-SIGN; cyno DC-SIGN CHO
T2 sequence: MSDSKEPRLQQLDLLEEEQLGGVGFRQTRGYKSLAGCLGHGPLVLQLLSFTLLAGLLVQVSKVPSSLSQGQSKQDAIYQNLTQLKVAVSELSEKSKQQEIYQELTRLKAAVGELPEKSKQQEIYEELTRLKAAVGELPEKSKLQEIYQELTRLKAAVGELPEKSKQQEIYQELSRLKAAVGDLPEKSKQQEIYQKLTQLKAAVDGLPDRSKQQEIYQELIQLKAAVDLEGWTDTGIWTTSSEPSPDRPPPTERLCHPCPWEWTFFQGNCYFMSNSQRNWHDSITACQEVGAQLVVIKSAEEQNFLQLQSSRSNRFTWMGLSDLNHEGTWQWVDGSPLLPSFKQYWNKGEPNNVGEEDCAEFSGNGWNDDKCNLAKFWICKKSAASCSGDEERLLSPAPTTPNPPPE

[4] = target: T3, DC-SIGN Carbohydrate Recognition Domain (CRD), His-tagged (human, UniProt Q9NNX6 250-404); assay: SPR (Biacore 8K), antibody captured on anti-human IgG Fc chip, DC-SIGN CRD as analyte
T3 construct: also called DC-SIGN CRD; not shown: His tag used for capture
T3 sequence: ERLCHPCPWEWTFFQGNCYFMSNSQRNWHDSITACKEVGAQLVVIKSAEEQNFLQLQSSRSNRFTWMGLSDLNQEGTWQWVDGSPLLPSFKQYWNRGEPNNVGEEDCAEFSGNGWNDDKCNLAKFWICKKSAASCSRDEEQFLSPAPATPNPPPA

[5] = target: T3, DC-SIGN Carbohydrate Recognition Domain …; assay: SPR (Biacore 8K), His-tagged DC-SIGN CRD captured at high density on chip, antibody as analyte

B1: 2B2 Hz (antibody, V domains shown)
VH: QVQLVQSGAEVKKPGASVKVSCKASGYTFTNYGINWVRQAPGQRLEWMGYIYIGNDYTEYNERFKGRVTITSDTSASTAYMELSSLRSEDTAVYYCARLYYGSSLYSYAMDYWGQGTTVTVSS
VL: DIVMTQSPLSLPVTPGEPASISCRSSKSLLHSSGNTYLYWFLQKPGQSPQLLISRMSNLASGVPDRFSGSGSGTDFTLKISRVEAEDVGVYYCMQHLEYPYTFGGGTKVEIKR
notes: also called humanized 2B2
Work on B1 yielded an EC50 [1] of 0.27 µg/mL, an EC50 [2] of 0.06 µg/mL and an EC50 [3] of 0.04 µg/mL.

B2: 2B2 Chimeric (antibody, V domains shown)
VH: EVQLQQSGAELVRPGSSVKMSCKTSGYTFTNYGINWVKQRPGQGLEWIGYIYIGNDYTEYNERFKGKATLTSDTSSSTAHIQLNSLTSEDSAIYFCARLYYGSSLYSYAMDYWGQGTSVTVSS
VL: DIVMTQAAPSVSVTPGESVSISCRSSKSLLHSSGNTYLYWFLQRPGQSPQLLISRMSNLASGVPDRFSGSGSGTAFTLRISRVEAEDVGVYYCMQHLEYPYTFGGGTKLELKR
notes: Murine variable regions on human constant regions
B2 gave an EC50 [1] of 0.28 µg/mL, an EC50 [2] of 0.23 µg/mL and an EC50 [3] of 0.32 µg/mL.

B3: 960K03 Parental (antibody, V domains shown)
VH: QVTLRESGPALVKPTQTLTLTCTFSGFSLSTGGMCVSWIRQPPGKALEWLALIDWDDDKYYSTSLKTRLTISKDTSKNQLVLTMTNMDPVDTATYYCARAHSGSYFDFWGQGTLVTVSS
VL: DIQMTQSPSTLSASVGDRVTITCRASQRISNWLAWYQQKPGKAPKLLIYKASSLESGVPSRFSGSGSGTEFTLTISSLQPDDFATYYCQQFNSYWTFGQGTKVEIKR
Binder B3 has a Kd [4] of 955 nM, a Kd [5] of 0.8 nM and an EC50 [2] of 0.1 µg/mL. For the same binder, the EC50 [3] was 0.02 µg/mL.

B4: 952P16 Parental (antibody, V domains shown)
VH: QVTLRESGPALVKPTQTLTLTCTFSGFSLSTSGVSVSWIRQPPGKALEWLALIDWDDDKYYSTSLKTRLTISKDTSKNQVVLTMTNMDPVDTATYYCARTPSGSYGRYFDLWGRGTLVTVSS
VL: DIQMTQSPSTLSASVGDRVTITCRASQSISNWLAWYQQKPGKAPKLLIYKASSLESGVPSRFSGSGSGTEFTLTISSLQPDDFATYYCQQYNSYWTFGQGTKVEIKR
B4 was tested, and the Kd [4] was 395 nM, the EC50 [1] was 0.04 µg/mL and the Kd [5] was 3.8 nM. It also gave an EC50 [2] of 0.06 µg/mL and an EC50 [3] of 0.02 µg/mL.

B5: 952G04 Parental (antibody, V domains shown)
VH: B4 VH with S37T, T70A
VL: B3 VL with R28S, N31T, K50E, F91Y
B5 showed a Kd [4] of 346 nM, an EC50 [1] of 0.26 µg/mL and a Kd [5] of 3.7 nM. For the same binder, the EC50 [2] was 0.11 µg/mL and the EC50 [3] was 0.19 µg/mL.

B6: 958N05 Parental (antibody, V domains shown)
VH: B4 VH with V34I
VL: B3 VL with M4L, R28S, S63T, F91Y
In the case of B6, the Kd [4] is reported as 174 nM, the EC50 [1] is reported as 0.05 µg/mL and the Kd [5] is reported as 1.7 nM. The EC50 [2] was 0.07 µg/mL and the EC50 [3] was 0.08 µg/mL.

B7: 914M09 Parental (antibody, human IgG1, kappa, V domains shown)
VH: QVQLQESGPGLVKPSETLSLTCAVSGGSISSYYWNLIRQPAGKGLEWIGRIYTSGSTNYNPSLKSRVTMSVDTSKNQFSLKLSSVTAADTAVYYCARDSGGFYYYYGMDVWGQGTTVTVSS
VL: DIQLTQSPSFLSASVGDRVTITCRASQGISSYLAWYQQKPGKAPKLLIYAASTLQGGVPSRFSGSGSGTEFTLTISSLQPEDFATYHCQQLNSYPWTFGQGTKVEIKR
For B7, the Kd [4] was 830 nM, the EC50 [1] was 0.25 µg/mL and the Kd [5] was 10 nM. The EC50 [2] was 0.1 µg/mL and the EC50 [3] was 0.08 µg/mL.

B8: 906C18 Parental (antibody, V domains shown)
VH: EVQLVESGGGLVQPGGSLRLSCAASGFTFNNYWMNWVRQAPGKGLEWVANIRQDGSEKYYVDSVKGRFTISRDNAKNSLFLQMNSLRAEDTAVYYCARERAYCSTTSCPDYSNDYWGQGTLVTVSS
VL: EIVMTQSPATLSVSPGERATLSCRASQTINNNLAWFQQKPGQTPRLLIYGASTGATGIPARFSGSGSGTEFTLTISSLQSEDFAVYYCQQYNNWPRGLTFGGGTKVEIKR
For B8, the Kd [4] was 1950 nM, the EC50 [1] was 1.72 µg/mL and the Kd [5] was 16 nM. The EC50 [2] was 0.21 µg/mL and the EC50 [3] was 0.77 µg/mL.

B9: 956E02 Parental (antibody, human IgG1, kappa, V domains shown)
VH: QVQLVQSGAEVKKPGASVKVSCKASGYTFTGYYINWVRQAPGQGLEWMGWINPNSGDTNYAQKFQGRVTMTRDPSISTAYMELSRLRSDDTAVYYCARENSGYGKLFDYWGQGTLVTVSS
VL: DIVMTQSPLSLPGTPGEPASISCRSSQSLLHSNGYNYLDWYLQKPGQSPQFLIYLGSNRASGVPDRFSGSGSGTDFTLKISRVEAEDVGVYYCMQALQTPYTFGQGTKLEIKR
For B9, the Kd [4] was 999 nM, the Kd [5] was 13 nM and the EC50 [2] was 0.12 µg/mL. It also gave an EC50 [3] of 0.13 µg/mL.

B10: 942K11 Parental (antibody, human IgG1, kappa, V domains shown)
VH: QVQLQESGPGLVKPSETLSLTCTVSGGSISSYYWTWIRQPAGKGLEWIGRVFTSESTNYNPSLKNRVTMSVDTSKNQFSLRLNSVTAADTAMYYCARDRGTYLGGFDPWGQGTLVTVSS
VL: not shown
Binder B10 has a Kd [4] of 1260 nM, a Kd [5] of 180 nM and an EC50 [2] of 0.2 µg/mL. It also gave an EC50 [3] of 11.6 µg/mL.

B11: 550E03 Parental (antibody, V domains shown)
VH: QVTLRESGPALVKPTQTLTLTCTFSGFSLSTSGMSVSWIRQPPGKALEWLALIDWDDDKYYSTSLKTRLTISKDTSKNQVVLTMTNMDPVDTATYYCARMALRHAFDAWGQGTMVTVSS
VL: QSVLTQPPSVSGAPGQRVTISCTGSSSNIGAGYDVHWYQQLPGTAPKLLIYVNSNRPSGVPDRFSGSKSGTSASLAITGLQAEDEADYYCQSYDSSLSGWVFGGGTKLTVLG
notes: also called 550Ee03
In the case of B11, the Kd [4] is reported as 523 nM, the EC50 [1] is reported as 1.5 µg/mL and the Kd [5] is reported as 5.8 nM. It also gave an EC50 [2] of 0.26 µg/mL and an EC50 [3] of 0.39 µg/mL.

B12: 2B2 (parental antibody) (antibody, V domains shown)
VH: B2 VH
VL: DIVMTQAAPSVSVTPGESVSISCRSSKSLLHSSGNTYLYWFLQRPGQSPQLLISRMSNLASGVPDRFSGSGSGTAFTLRISRVEAEDVGVYYCMQHLEYPYTFGGGTKLELK
notes: also called antibody 2B2
B12 was tested, and the Kd [4] was 32 nM and the Kd [5] was 0.5 nM.

— US20210170043A1 (Novartis, published 2021)
